Read-outs that look alike come from different tables or passages of the source.
Columns and labels:
human IL-31 [1] = target: T1, human IL-31 (human, UniProt Q6EBC2 24-164, limits assumed); test: cell-based or functional assay
T1 sequence (looked up): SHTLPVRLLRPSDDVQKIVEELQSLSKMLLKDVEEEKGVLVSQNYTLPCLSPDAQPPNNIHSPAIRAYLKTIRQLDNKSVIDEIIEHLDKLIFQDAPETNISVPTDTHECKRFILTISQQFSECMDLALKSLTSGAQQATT

human IL-31-His [2] = target: T2, human IL-31-His (human, UniProt Q6EBC2 24-164); test: SPR (Biacore T200), human IL-31-His captured via anti-His antibody, scFv as analyte
T2 construct: form captured via anti-His tag antibody in the SPR of the scFvs (sections 1.8 and 2.4); also called hIL-31; not shown: His tag
T2 sequence (looked up): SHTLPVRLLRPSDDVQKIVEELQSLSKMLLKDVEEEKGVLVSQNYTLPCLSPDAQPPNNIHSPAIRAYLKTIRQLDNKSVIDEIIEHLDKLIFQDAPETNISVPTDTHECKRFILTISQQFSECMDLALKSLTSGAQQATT
Protocol: (§1) After each analyte injection cycle the sensor chip was regenerated and new antigen was captured. The scFvs were measured using a dose response multi-cycle kinetic assay in a high-throughput mode with two concentrations (30 and 10 nM) diluted in running buffer. Obtained sensorgrams were fitted using a 1:1 binding model.

human IL-31 [3] = target: T1, human IL-31; test: cell-based or functional assay; remark: listed apart in the source
cynomolgus IL-31-His [4] = target: T3, cynomolgus IL-31-His (cynomolgus monkey (Macaca fascicularis)); test: SPR (Biacore T200), cynomolgus IL-31-His captured via anti-His antibody, scFv as analyte
T3 construct: extracellular domain; also called cynomolgus monkey IL-31; cyno IL-31
Protocol: as §1

human IL-31-His [5] = target: T2, human IL-31-His; test: SPR (Biacore T200), human IL-31-His captured via anti-His antibody, scFv as analyte; remark: listed apart in the source
Protocol: as §1
(§2) The scFvs were measured using a dose response multi-cycle kinetic assay in a high-throughput mode with two concentrations (30 and 10 nM) diluted in running buffer. Obtained sensorgrams were fitted using a 1:1 binding model.

human IL-31 [6] = target: T1, human IL-31; test: competitive ELISA: IL-31RA coated, biotinylated IL-31 preincubated with scFv
Text: For this purpose, IL-31RA was coated on the ELISA plate.
Potency of the two humanized scFvs was further determined using a competitive ELISA.

cynomolgus IL-31-His [7] = target: T3, cynomolgus IL-31-His; test: SPR (Biacore T200), cynomolgus IL-31-His captured via anti-His antibody, scFv as analyte; remark: listed apart in the source
Protocol: as §1, §2

human IL-31 [8] = target: T1, human IL-31; test: cell-based or functional assay; remark: listed apart in the source
human IL-31 [9] = target: T1, human IL-31; test: cell-based or functional assay; remark: listed apart in the source
human IL-31 [10] = target: T1, human IL-31; test: competitive ELISA: IL-31RA coated, biotinylated IL-31 preincubated with the antibody, bound IL-31 detected with streptavidin-HRP; blocked interaction IL-31/IL-31RA
human IL-31 [11] = target: T1, human IL-31; test: cell-based or functional assay; remark: listed apart in the source
human IL-31 [12] = target: T1, human IL-31; test: cell-based or functional assay; remark: listed apart in the source
human IL-31 [13] = target: T1, human IL-31; test: competitive ELISA: IL-31RA coated, biotinylated IL-31 preincubated with the antibody, bound IL-31 detected with streptavidin-HRP; blocked interaction IL-31/IL-31RA; remark: listed apart in the source
human IL-31 [14] = target: T1, human IL-31; test: cell-based or functional assay; remark: listed apart in the source
human IL-31 [15] = target: T1, human IL-31; test: competitive ELISA: IL-31RA coated, biotinylated IL-31 preincubated with the antibody, bound IL-31 detected with streptavidin-HRP; blocked interaction IL-31/IL-31RA; remark: listed apart in the source
human IL-31 [16] = target: T1, human IL-31; test: cell-based or functional assay; remark: listed apart in the source

IC50 [ng/ml], neutralization of hIL-31-induced signaling in IL-31RA/OSMR dimerization assay (human IL-31 [1]) [ng/mL]	Kd (human IL-31-His [5]) [nM]	koff (human IL-31-His [5]) [s⁻¹]	kon (human IL-31-His [5]) [M⁻¹ s⁻¹]	Kd (cynomolgus IL-31-His [7]) [nM]	koff (cynomolgus IL-31-His [7]) [s⁻¹]	kon (cynomolgus IL-31-His [7]) [M⁻¹ s⁻¹]	further results	Binder
8.08	1.13	0.000653	579000	1.17	0.000587	501000	Kd (human IL-31-His [2]): 0.505 nM; koff (human IL-31-His [2]): 0.000447 s⁻¹; kon (human IL-31-His [2]): 884000 M⁻¹ s⁻¹; IC50 [ng/ml], neutralization of hIL-31-induced signaling in IL-31RA/OSMR dimerization assay (human IL-31 [3]): 11.1 ng/mL; Kd (cynomolgus IL-31-His [4]): 0.583 nM; koff (cynomolgus IL-31-His [4]): 0.000444 s⁻¹; kon (cynomolgus IL-31-His [4]): 761000 M⁻¹ s⁻¹; IC50 (human IL-31 [6]): 4.58 ng/mL	PRO1643 (scFv, scFv (VL-linker-VH), full graft of rabbit clone 50-09-D07; also called 50-09-D07-sc03; 50-09-D07-5c03) scFv: AFQLTQSPSSLSASVGDRVTITCQASQSIDSWLAWYQQKPGKPPKLLIYQASKLASGVPSRFSGSGSGTDYTLTISSLQPEDFATYYCQTYYGGGHIGWGFGTGTKVTVLGGGGGSGGGGSGGGGSGGGGSQSQLVESGGGLVQPGGSLRLSCAASGFSFSANYWICWVRQAPGKGLEWIVCIYIGSRADTYYAPWAKGRFTISKDNSKNTVYLQMNSLRAEDTAVYFCARFSSGIYDLDRFFLWGQGTLVTVSS
	2.89	0.00246	852000					PRO1902 (scFv, scFv (VL-linker-VH); variant of PRO1643 with VH Y59S (AHo numbering); also called 50-09-D07-sc06; 50-09-D07-5c06) scFv: AFQLTQSPSSLSASVGDRVTITCQASQSIDSWLAWYQQKPGKPPKLLIYQASKLASGVPSRFSGSGSGTDYTLTISSLQPEDFATYYCQTYYGGGHIGWGFGTGTKVTVLGGGGGSGGGGSGGGGSGGGGSQSQLVESGGGLVQPGGSLRLSCAASGFSFSANYWICWVRQAPGKGLEWIVCISIGSRADTYYAPWAKGRFTISKDNSKNTVYLQMNSLRAEDTAVYFCARFSSGIYDLDRFFLWGQGTLVTVSS
	1.22	0.000638	524000					PRO1903 (scFv, scFv (VL-linker-VH); variant of PRO1643 with VL D32E (AHo numbering); also called 50-09-D07-sc07; 50-09-D07-5c07) scFv: AFQLTQSPSSLSASVGDRVTITCQASQSIESWLAWYQQKPGKPPKLLIYQASKLASGVPSRFSGSGSGTDYTLTISSLQPEDFATYYCQTYYGGGHIGWGFGTGTKVTVLGGGGGSGGGGSGGGGSGGGGSQSQLVESGGGLVQPGGSLRLSCAASGFSFSANYWICWVRQAPGKGLEWIVCIYIGSRADTYYAPWAKGRFTISKDNSKNTVYLQMNSLRAEDTAVYFCARFSSGIYDLDRFFLWGQGTLVTVSS
8.21	0.907	0.000599	661000	1.07	0.000594	554000		PRO1900 (scFv, scFv (VL-linker-VH); variant of PRO1643 with VH L12R, V103T, L144Q (AHo numbering); also called 50-09-D07-sc04; 50-09-D07-5c04) scFv: AFQLTQSPSSLSASVGDRVTITCQASQSIDSWLAWYQQKPGKPPKLLIYQASKLASGVPSRFSGSGSGTDYTLTISSLQPEDFATYYCQTYYGGGHIGWGFGTGTKVTVLGGGGGSGGGGSGGGGSGGGGSQSQLVESGGGRVQPGGSLRLSCAASGFSFSANYWICWVRQAPGKGLEWIVCIYIGSRADTYYAPWAKGRFTISKDNSKNTVYLQMNSLRAEDTATYFCARFSSGIYDLDRFFLWGQGTQVTVSS
	0.956	0.000565	591000					PRO1901 (scFv, scFv (VL-linker-VH); variant of PRO1643 with VH L12S, V103T, L144Q (AHo numbering); also called 50-09-D07-sc05) scFv: AFQLTQSPSSLSASVGDRVTITCQASQSIDSWLAWYQQKPGKPPKLLIYQASKLASGVPSRFSGSGSGTDYTLTISSLQPEDFATYYCQTYYGGGHIGWGFGTGTKVTVLGGGGGSGGGGSGGGGSGGGGSQSQLVESGGGSVQPGGSLRLSCAASGFSFSANYWICWVRQAPGKGLEWIVCIYIGSRADTYYAPWAKGRFTISKDNSKNTVYLQMNSLRAEDTATYFCARFSSGIYDLDRFFLWGQGTQVTVSS
							IC50 (read off the curve) (human IL-31 [8]): ~8 ng/mL; IC50 (read off the curve) (human IL-31 [9]): ~7 ng/mL; IC50 (read off the curve) (human IL-31 [10]): ~10 ng/mL; IC50 (read off the curve) (human IL-31 [11]): ~10 ng/mL; IC50 (read off the curve) (human IL-31 [12]): ~10 ng/mL; IC50 (read off the curve) (human IL-31 [13]): ~10 ng/mL; IC50 (read off the curve) (human IL-31 [14]): ~10 ng/mL; IC50 (read off the curve) (human IL-31 [15]): ~10 ng/mL; IC50 (read off the curve) (human IL-31 [16]): ~10 ng/mL	BMS-981164 (antibody, V domains shown) VH: QVQLVQSGAEVKKPGASVKVSCKASGYTLTRYWMQWVRQAPGQGLEWMGAIYPGDGDTRYSQKFQGRVTLTADKSTSTAYMELSSLRSEDTAVYYCAFPDGYYAAPYGMDYWGQGTLVTVSS VL: DIQMTQSPSSLSASVGDRVTITCRASGNIHNYLAWYQQKPGKVPKLLIYNAKTLADGVPSRFSGSRSETQYSLTISSLQPEDVATYYCQHFWSTPWTFGQGTKVEIKR
